From IntAct's records for PubMed 11231056

B1: Platelet-activating factor acetylhydrolase IB subunit beta (Mus musculus), P63005 (parent)
chain: MVLSQRQRDELNRAIADYLRSNGYEEAYSVFKKEAELDMNEELDKKYAGLLEKKWTSVIRLQKKVMELESKLNEAKEEFTSGGPLGQKRDPKEWIPRPPEKYALSGHRSPVTRVIFHPVFSVMVSASEDATIKVWDYETGDFERTLKGHTDSVQDISFDHSGKLLASCSADMTIKLWDFQGFECIRTMHGHDHNVSSVAIMPNGDHIVSASRDKTIKMWEVQTGYCVKTFTGHREWVRMVRPNQDGTLIASCSNDQTVRVWVVATKECKAELREHEHVVECISWAPESSYSSISEATGSETKKSGKPGPFLLSGSRDKTIKMWDVSTGMCLMTLVGHDNWVRGVLFHSGGKFILSCADDKTLRVWDYKNKRCMKTLNAHEHFVTSLDFHKTAPYVVTGSVDQTVKVWECR
partner: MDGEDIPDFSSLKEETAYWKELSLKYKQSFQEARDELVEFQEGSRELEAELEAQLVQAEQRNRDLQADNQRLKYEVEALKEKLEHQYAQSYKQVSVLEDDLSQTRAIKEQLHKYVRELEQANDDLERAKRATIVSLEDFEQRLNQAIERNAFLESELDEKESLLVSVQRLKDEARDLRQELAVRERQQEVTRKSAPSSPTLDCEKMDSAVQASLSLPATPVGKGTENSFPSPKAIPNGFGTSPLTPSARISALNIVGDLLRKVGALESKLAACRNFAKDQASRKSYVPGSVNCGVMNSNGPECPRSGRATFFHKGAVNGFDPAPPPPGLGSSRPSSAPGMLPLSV

Variants of: B1
Settings: with ndel1_mouse Ndel1, Q9ERR1
MVLSQRQRDELNRAIADYLRSNGYEEAYSVFKKEAELDMNEELDKKYAGLLEKKWTSVIRLQKKVMELESKLNEAKEEFTSGGPLGQKRDPKEWIPRPPEKYALSGHRSPVTRVIFHPVFSVMVSASEDATIKVWDYETGDFERTLKGRTDSVQDISFDHSGKLLASCSADMTIKLWDFQGFECIRTMHGHDHNVSSVAIMPNGDHIVSASRDKTIKMWEVQTGYCVKTFTGHREWVRMVRPNQDGTLIASCSNDQTVRVWVVATKECKAELREHEHVVECISWAPESSYSSISEATGSETKKSGKPGPFLLSGSRDKTIKMWDVSTGMCLMTLVGHDNWVRGVLFHSGGKFILSCADDKTLRVWDYKNKRCMKTLNAHEHFVTSLDFHKTAPYVVTGSVDQTVKVWECR [H149R] was tested, and the “effect of a mutation on the interaction” value was “disrupting interaction”. MVLSQRQRDELNRAIADYLRSNGYEEAYSVFKKEAELDMNEELDKKYAGLLEKKWTSVIRLQKKVMELESKLNEAKEEFTSGGPLGQKRDPKEWIPRPPEKYALSGHRSPVTRVIFHPVFSVMVSASEDATIKVWDYETGDFERTLKGHTDWVQDISFDHSGKLLASCSADMTIKLWDFQGFECIRTMHGHDHNVSSVAIMPNGDHIVSASRDKTIKMWEVQTGYCVKTFTGHREWVRMVRPNQDGTLIASCSNDQTVRVWVVATKECKAELREHEHVVECISWAPESSYSSISEATGSETKKSGKPGPFLLSGSRDKTIKMWDVSTGMCLMTLVGHDNWVRGVLFHSGGKFILSCADDKTLRVWDYKNKRCMKTLNAHEHFVTSLDFHKTAPYVVTGSVDQTVKVWECR [S152W] was tested, and the “effect of a mutation on the interaction” value was “disrupting interaction”. For MVLSQRQRDELNRAIADYLRSNGYEEAYSVFKKEAELDMNEELDKKYAGLLEKKWTSVIRLQKKVMELESKLNEAKEEFTSGGPLGQKRDPKEWIPRPPEKYALSGHRSPVTRVIFHPVFSVMVSASEDATIKVWDYETGDFERTLKGHTDSVQDISFDHSGKLLASCPADMTIKLWDFQGFECIRTMHGHDHNVSSVAIMPNGDHIVSASRDKTIKMWEVQTGYCVKTFTGHREWVRMVRPNQDGTLIASCSNDQTVRVWVVATKECKAELREHEHVVECISWAPESSYSSISEATGSETKKSGKPGPFLLSGSRDKTIKMWDVSTGMCLMTLVGHDNWVRGVLFHSGGKFILSCADDKTLRVWDYKNKRCMKTLNAHEHFVTSLDFHKTAPYVVTGSVDQTVKVWECR [S169P], the “effect of a mutation on the interaction” value was “disrupting interaction”.
